From article PMC3458824, “Direct Observation of the Uptake of Outer Membrane Proteins by the Periplasmic Chaperone Skp” (PLoS ONE, 2012)

Columns and labels:
Experiment in all cases: FRET or BRET; stopped-flow FRET; Cy5 labeled OmpC mutant in 8 M urea mixed 1:20 with Cy3 labeled Skp mutant; both 0.03 µM final; 50 mM PBS pH 7.0, 100 mM NaCl, 0.01% Tween 20, 25°C; Cy5 emission, fitted to three exponentials
Settings in all cases: both partners purified
Skp-K55C-Cy3 = molecular target: T1, Skp-K55C-Cy3 (Escherichia coli, UniProt P0AEU7 21-161, K55C, Cy3 (Cy3-maleimide) on the introduced cysteine at 55)
T1 construct: Skp of Escherichia coli, each monomer 141 residues as printed; Extent of labeling greater than 90%; one dye on each of the three chains of the trimer; also called Cy3 labeled Skp mutant K55C; Skp-Cy3; source: E. coli BL21 (DE3), purified (Ni-NTA), labeled with Cy3-maleimide
T1 sequence (looked up): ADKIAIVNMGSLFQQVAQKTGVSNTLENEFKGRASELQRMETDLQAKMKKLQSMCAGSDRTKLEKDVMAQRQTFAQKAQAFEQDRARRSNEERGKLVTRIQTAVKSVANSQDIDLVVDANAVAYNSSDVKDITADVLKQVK

Skp-E82C-Cy3 = molecular target: T2, Skp-E82C-Cy3 (Escherichia coli, UniProt P0AEU7 21-161, E82C, Cy3 (Cy3-maleimide) on the introduced cysteine at 82)
T2 construct: Skp of Escherichia coli, each monomer 141 residues as printed; Extent of labeling greater than 90%; one dye on each of the three chains of the trimer; also called Cy3 labeled Skp mutant E82C; Skp-Cy3; source: E. coli BL21 (DE3), purified (Ni-NTA), labeled with Cy3-maleimide
T2 sequence (looked up): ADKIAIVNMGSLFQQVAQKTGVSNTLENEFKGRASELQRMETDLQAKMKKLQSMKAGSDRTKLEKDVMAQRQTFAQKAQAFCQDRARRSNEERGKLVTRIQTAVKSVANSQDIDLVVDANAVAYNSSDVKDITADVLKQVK

Skp-D128C-Cy3 = molecular target: T3, Skp-D128C-Cy3 (Escherichia coli, UniProt P0AEU7 21-161, D128C, Cy3 (Cy3-maleimide) on the introduced cysteine at 128)
T3 construct: Skp of Escherichia coli, each monomer 141 residues as printed; Extent of labeling greater than 90%; one dye on each of the three chains of the trimer; also called Cy3 labeled Skp mutant D128C; Skp-Cy3; source: E. coli BL21 (DE3), purified (Ni-NTA), labeled with Cy3-maleimide
T3 sequence (looked up): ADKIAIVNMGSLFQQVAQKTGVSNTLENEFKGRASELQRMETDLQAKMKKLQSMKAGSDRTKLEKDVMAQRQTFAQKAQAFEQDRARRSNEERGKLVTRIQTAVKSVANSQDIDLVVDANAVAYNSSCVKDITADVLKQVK

B1: OmpC-D25C-Cy5 (natural protein, Escherichia coli, UniProt P06996 22-367, looked up)
chain: AEVYNKDGNKLDLYGKVDGLHYFSCNKDVDGDQTYMRLGFKGETQVTDQLTGYGQWEYQIQGNSAENENNSWTRVAFAGLKFQDVGSFDYGRNYGVVYDVTSWTDVLPEFGGDTYGSDNFMQQRGNGFATYRNTDFFGLVDGLNFAVQYQGKNGNPSGEGFTSGVTNNGRDALRQNGDGVGGSITYDYEGFGIGGAISSSKRTDAQNTAAYIGNGDRAETYTGGLKYDANNIYLAAQYTQTYNATRVGSLGWANKAQNFEAVAQYQFDFGLRPSLAYLQSKGKNLGRGYDDEDILKYVDVGATYYFNKNMSTYVDYKINLLDDNQFTRDAGINTDNIVALGLVYQF
modifications: Cy5 (Cy5-maleimide) on the introduced cysteine at 25
notes: Outer membrane protein OmpC of Escherichia coli; 346 residues as printed; Extent of labeling greater than 90%; also called Cy5 labeled OmpC mutant D25C; source: E. coli BL21 (DE3), purified (Ni-NTA) in 8 M urea, unfolded, labeled with Cy5-maleimide
- time constant τ1 of the fast phase (Skp-K55C-Cy3): 73 ± 5.1 ms
- time constant τ1 of the fast phase (Skp-E82C-Cy3): 101 ± 6.9 ms
- time constant τ1 of the fast phase (Skp-D128C-Cy3): 143 ± 10 ms
